According to paper PMC4522657, “Identification of a DYRK1A Inhibitor that Induces Degradation of the Target Kinase using Co-chaperone CDC37 fused with Luciferase nanoKAZ” (Scientific Reports, 2015):

Legend:
CDC37 (CDC37-nanoKAZ) = CDC37 (CDC37-nanoKAZ) (UniProt Q16543); experiment: anti-FLAG plate capture, luciferase-fusion luminescence; conditions: reference: wild type
HSP90β (nanoKAZ-HSP90β) = HSP90β (nanoKAZ-HSP90β) (UniProt P08238); experiment: as above; conditions: reference: wild type

Substance: DYRK1A (from UniProt Q13627) Y159F
- fold change (CDC37 (CDC37-nanoKAZ); sites Y159): 8.4

Substance: DYRK1A (from UniProt Q13627) Y319F/Y321F
- fold change (CDC37 (CDC37-nanoKAZ); sites Y319,Y321): 8
- fold change (HSP90β (nanoKAZ-HSP90β); sites Y319,Y321): 3.8

Substance: DYRK1A (from UniProt Q13627) K188R kinase-dead (no autophosphorylation)
- fold change (CDC37 (CDC37-nanoKAZ)): 17
- fold change (HSP90β (nanoKAZ-HSP90β)): 10

Substance: DYRK1A (from UniProt Q13627) Y145F/Y147F
- fold change (CDC37 (CDC37-nanoKAZ); sites Y145,Y147): 2.4

Substance: DYRK1A (from UniProt Q13627) Y111F
- fold change (CDC37 (CDC37-nanoKAZ); sites Y111): 1.4
